# Results as given in patent publication US9574173 (ACCELERATED BIOSCIENCES, dated 2017).
# Columns and labels:
# [1] = target: mechanistic target of rapamycin (mTOR) (human, UniProt P42345 1-2549); assay: immunoprecipitation and Western blot, RA-treated hTS cells (FIG. 28d)
# [2] = target: T1, E1A binding protein p300 (EP300) (human, UniProt Q09472 2-2414); assay: immunoprecipitation and Western blot, RA-treated hTS cells (FIG. 22c)
# T1 construct: Endogenous protein of RA-treated hTS cells; also called ER300
# T1 sequence (Q09472 2-2414 limits assumed): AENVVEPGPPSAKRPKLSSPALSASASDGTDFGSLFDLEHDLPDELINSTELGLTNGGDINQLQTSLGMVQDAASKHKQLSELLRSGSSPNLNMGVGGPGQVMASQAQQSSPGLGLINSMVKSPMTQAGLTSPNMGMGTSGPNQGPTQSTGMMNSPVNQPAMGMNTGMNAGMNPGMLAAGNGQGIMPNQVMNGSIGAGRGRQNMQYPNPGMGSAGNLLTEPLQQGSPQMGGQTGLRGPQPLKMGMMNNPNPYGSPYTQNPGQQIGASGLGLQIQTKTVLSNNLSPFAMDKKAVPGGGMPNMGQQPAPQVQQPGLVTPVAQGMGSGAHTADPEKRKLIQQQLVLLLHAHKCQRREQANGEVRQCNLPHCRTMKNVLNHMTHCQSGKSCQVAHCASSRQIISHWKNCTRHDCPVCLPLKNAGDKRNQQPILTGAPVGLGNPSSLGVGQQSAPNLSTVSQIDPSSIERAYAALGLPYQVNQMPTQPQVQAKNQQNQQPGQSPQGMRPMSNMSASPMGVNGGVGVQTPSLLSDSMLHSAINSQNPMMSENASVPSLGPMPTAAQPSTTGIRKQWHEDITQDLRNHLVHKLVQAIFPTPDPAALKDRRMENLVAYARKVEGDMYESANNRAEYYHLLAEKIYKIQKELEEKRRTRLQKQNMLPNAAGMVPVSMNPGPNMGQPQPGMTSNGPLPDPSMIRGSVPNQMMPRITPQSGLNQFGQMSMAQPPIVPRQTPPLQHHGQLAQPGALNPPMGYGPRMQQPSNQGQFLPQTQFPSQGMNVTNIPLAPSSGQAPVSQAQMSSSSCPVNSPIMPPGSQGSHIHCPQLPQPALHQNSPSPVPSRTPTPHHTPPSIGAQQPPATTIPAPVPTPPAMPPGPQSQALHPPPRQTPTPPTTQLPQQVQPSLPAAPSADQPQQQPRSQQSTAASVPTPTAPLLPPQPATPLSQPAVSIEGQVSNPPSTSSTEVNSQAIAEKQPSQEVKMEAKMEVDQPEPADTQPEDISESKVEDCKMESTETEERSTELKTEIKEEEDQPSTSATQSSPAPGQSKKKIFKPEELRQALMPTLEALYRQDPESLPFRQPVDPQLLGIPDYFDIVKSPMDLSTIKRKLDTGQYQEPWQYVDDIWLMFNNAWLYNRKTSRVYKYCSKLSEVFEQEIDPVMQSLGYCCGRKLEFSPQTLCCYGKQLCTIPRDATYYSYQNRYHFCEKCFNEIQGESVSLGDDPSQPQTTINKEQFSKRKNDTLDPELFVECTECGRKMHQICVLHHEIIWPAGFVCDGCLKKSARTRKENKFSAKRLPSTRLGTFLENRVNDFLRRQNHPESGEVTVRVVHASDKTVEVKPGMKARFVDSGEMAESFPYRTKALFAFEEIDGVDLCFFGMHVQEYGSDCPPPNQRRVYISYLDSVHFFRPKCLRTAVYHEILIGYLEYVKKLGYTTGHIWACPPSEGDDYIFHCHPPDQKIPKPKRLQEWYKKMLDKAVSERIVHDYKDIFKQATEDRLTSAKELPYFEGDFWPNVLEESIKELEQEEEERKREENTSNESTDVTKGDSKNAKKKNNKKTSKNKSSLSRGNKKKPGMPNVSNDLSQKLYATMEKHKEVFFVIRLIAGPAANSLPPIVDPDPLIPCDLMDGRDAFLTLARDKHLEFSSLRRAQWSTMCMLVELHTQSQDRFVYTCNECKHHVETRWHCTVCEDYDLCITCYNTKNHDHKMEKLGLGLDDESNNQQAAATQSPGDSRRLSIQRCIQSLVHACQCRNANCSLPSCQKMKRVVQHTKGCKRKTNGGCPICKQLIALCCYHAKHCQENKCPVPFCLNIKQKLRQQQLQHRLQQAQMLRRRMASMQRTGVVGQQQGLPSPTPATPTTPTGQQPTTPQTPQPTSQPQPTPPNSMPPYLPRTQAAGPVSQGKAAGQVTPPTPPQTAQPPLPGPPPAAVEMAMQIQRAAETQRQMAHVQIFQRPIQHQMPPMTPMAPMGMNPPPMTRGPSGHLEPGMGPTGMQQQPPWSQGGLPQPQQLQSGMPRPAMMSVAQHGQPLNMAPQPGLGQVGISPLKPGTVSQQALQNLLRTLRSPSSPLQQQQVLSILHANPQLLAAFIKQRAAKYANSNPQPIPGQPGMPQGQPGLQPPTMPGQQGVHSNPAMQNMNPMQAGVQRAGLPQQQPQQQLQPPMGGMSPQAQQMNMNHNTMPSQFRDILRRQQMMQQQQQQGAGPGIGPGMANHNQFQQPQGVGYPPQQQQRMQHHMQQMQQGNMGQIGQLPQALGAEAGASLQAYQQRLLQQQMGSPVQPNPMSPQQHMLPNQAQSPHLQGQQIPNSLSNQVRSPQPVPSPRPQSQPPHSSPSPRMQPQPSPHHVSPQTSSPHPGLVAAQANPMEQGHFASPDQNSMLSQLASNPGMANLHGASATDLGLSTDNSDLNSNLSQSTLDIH
binding result [1],binding result [2],Binder
binds,–,"rac-gamma serine/threonine-protein kinase (AKt3) (enzyme, Endogenous protein of RA-treated hTS cells) SDVTIVKEGWVQKRGEYIKNWRPRYFLLKTDGSFIGYKEKPQDVDLPYPLNNFSVAKCQLMKTERPKPNTFIIRCLQWTTVIERTFHVDTPEEREEWTEAIQAVADRLQRQEEERMNCSPTSQIDNIGEEEMDASTTHHKRKTMNDFDYLKLLGKGTFGKVILVREKASGKYYAMKILKKEVIIAKDEVAHTLTESRVLKNTRHPFLTSLKYSFQTKDRLCFVMEYVNGGELFFHLSRERVFSEDRTRFYGAEIVSALDYLHSGKIVYRDLKLENLMLDKDGHIKITDFGLCKEGITDAATMKTFCGTPEYLAPEVLEDNDYGRAVDWWGLGVVMYEMMCGRLPFYNQDHEKLFELILMEDIKFPRTLSSDAKSLLSGLLIKDPNKRLGGGPDDAKEIMRHSFFSGVNWQDVYDKKLVPPFKPQVTSETDTRYFDEEFTAQTITITPPEKYDEDGMDCMDNERRPHFPQFSYSASGRE"
–,binds,"myocyte enhancer factor 2A (MEF2A) (other, human, UniProt Q02078 1-507, looked up, Endogenous protein of RA-treated hTS cells) MGRKKIQITRIMDERNRQVTFTKRKFGLMKKAYELSVLCDCEIALIIFNSSNKLFQYASTDMDKVLLKYTEYNEPHESRTNSDIVEALNKKEHRGCDSPDPDTSYVLTPHTEEKYKKINEEFDNMMRNHKIAPGLPPQNFSMSVTVPVTSPNALSYTNPGSSLVSPSLAASSTLTDSSMLSPPQTTLHRNVSPGAPQRPPSTGNAGGMLSTTDLTVPNGAGSSPVGNGFVNSRASPNLIGATGANSLGKVMPTKSPPPPGGGNLGMNSRKPDLRVVIPPSSKGMMPPLSEEEELELNTQRISSSQATQPLATPVVSVTTPSLPPQGLVYSAMPTAYNTDYSLTSADLSALQGFNSPGMLSLGQVSAWQQHHLGQAALSSLVAGGQLSQGSNLSINTNQNISIKSEPISPPRDRMTPSGFQQQQQQQQQQQPPPPPQPQPQPPQPQPRQEMGRSPVDSLSSSSSSYDGSDREDPRGDFHSPIVLGRPPNTEDRESPSVKRMRMDAWVT"
